These results are taken from patent US20090088402A1 (SUNGKYUNKWAN UNIVERSITY FOUNDATION FOR CORPORATE …, published 2009).

The test addresses T1, full length human p53 fused in frame with the B42D activation domain (pJG4-5) (human, UniProt P04637 1-393).
T1 construct: mature; Yeast two hybrid prey
Kind of test: yeast two hybrid, X-gal colony colour. From the text: To determine whether protein-protein interactions are involved, and which part of Msx1 are involved if any, in the stabilization of p53 leading to apoptosis of cells by Msx1, yeast two hybrid assays were used as previously described (Gyuris et al., Cell 75: 791-803, 1993; Part et al., ibid).
Briefly, to this end, four Msx1 constructs (FIG. 3A top) were made as described in Example 1. DNA fragments encoding full length human HPV-E6 and p53 proteins were isolated by PCR from the cDNA library derived from HeLa cells (Clontech) and cloned into pJG4-5 at unique EcoRI and XhoI sites for in-frame fusion of each cDNA with B42D activation domain. The truncated constructs of Msx1 as shown in FIG. 3A were obtained by PCR using specific set of primers designed for each deletion product and pCB6+/Msx1 as a template. Each amplified Msx1 fragment was then inserted into a pGlida vector (Clontech) using BamHI and XhoI sites to express it as a fusion protein with LexA. Each pGlida and pJG4-5 fusion construct prepared was then introduced into the testing yeast strain EGY48. […] The binding activity between HPV-E6 and Msx1 was also determined quantitatively by the relative expression level of β-galactosidase as described (Rho, S B et al., FEBS Lett 557: 57-63, 2004; Rho, S B et al., PNAS USA 93:10128-33,1996).

B1: Msx1 construct lacking homeodomain (1-165) expressed as a fusion protein with LexA (other)
chain: MTSLPLGVKVEDSAFGKPAGGGAGQAPSAAAATAAAMGADEEGAKPKVSPSLLPFSVEALMADHRKPGAKESALAPSEGVQAAGGSAQPLGVPPGSLGAPDAPSSPRPLGHFSVGGLLKLPEDALVKAESPEKPERTPWMQSPRFSPPPARRLSPPACTLRKHKT
notes: Yeast two hybrid bait; not shown: LexA as encoded by the pGlida vector (Clontech)
In the case of B1, the binding result was “no binding”.
